Data published in paper PMC3855398.

Target: hGle1B tagged with mCerulean3 (Cer3-hGle1B) or mVenus (Venus-hGle1B) (human) (UniProt Q53GS7)
Test: FRET or BRET

Chain of UniProt Q53GS7 (Q53GS7 whole entry): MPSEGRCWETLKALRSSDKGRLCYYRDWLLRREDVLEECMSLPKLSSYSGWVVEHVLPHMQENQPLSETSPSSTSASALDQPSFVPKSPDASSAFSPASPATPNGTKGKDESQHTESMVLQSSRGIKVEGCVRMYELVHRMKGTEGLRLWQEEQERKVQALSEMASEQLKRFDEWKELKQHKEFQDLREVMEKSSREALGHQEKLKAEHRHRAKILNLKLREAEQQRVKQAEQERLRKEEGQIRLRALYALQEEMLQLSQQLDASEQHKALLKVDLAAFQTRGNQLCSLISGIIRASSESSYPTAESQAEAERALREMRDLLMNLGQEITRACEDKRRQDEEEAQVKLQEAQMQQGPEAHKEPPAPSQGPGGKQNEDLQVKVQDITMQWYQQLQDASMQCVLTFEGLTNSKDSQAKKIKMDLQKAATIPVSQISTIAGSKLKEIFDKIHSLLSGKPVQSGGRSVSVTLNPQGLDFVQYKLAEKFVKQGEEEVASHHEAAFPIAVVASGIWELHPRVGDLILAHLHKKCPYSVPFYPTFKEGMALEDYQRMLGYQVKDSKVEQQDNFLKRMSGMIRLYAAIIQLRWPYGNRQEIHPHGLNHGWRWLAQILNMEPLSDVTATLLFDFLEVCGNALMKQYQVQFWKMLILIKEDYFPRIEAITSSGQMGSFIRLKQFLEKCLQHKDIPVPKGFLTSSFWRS

- FRET efficiency (cytoplasm and nucleoplasm): < 1.25%
- normalized FRET (NFRET) signal (all locations): < 4.08
Substance: mCerulean3 alone
